According to patent EP4725963A1 (Jiangsu Hengrui Pharmaceuticals Co., Ltd., dated 2026):
Where a chain is given by its changes, count along the chain named. Where two headings read alike, the source gives them in different places.

What was measured:
[1] = molecular target: T1, human NPR1 full-length protein overexpressed on CHO-K1 cells (human, UniProt P16066 33-1061); assay: cell-based or functional assay
T1 sequence: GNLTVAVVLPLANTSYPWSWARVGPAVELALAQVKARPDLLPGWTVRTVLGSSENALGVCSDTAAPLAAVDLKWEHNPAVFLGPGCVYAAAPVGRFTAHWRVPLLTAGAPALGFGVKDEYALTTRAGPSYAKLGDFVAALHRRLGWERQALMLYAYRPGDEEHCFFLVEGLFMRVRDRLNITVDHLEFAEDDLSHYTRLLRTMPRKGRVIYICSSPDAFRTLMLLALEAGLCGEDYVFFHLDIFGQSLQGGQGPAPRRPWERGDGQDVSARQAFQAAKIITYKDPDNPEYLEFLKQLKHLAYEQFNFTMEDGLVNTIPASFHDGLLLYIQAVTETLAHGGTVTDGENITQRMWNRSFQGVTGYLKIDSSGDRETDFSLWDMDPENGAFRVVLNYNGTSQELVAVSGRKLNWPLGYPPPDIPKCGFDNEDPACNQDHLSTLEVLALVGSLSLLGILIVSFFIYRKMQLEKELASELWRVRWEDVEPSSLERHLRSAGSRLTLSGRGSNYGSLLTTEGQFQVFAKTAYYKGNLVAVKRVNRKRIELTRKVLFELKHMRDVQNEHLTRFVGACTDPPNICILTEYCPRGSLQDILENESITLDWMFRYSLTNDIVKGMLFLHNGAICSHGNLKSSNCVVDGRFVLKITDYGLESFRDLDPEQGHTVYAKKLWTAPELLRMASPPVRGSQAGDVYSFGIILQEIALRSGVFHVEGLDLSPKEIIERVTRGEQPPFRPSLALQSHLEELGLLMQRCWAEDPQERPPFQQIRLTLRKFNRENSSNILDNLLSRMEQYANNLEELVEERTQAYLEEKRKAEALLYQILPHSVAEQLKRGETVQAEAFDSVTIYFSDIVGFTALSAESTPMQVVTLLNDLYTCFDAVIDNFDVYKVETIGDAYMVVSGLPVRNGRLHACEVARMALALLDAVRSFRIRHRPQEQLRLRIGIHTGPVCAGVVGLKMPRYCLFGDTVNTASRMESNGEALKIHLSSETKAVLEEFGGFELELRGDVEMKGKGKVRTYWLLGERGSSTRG

[2] = molecular target: T2, fusion protein of the human NPR1 protein extracellular domain and human-IgG1-Fc (human); assay: ELISA, plate coated with 4 µg/mL hNPR1 antigen
T2 construct: also called hNPR1-hFc; hNPR1

hNPR2 = molecular target: T3, hNPR2 (human, UniProt P20594 23-458, limits assumed); assay: ELISA, plate coated with 4 µg/mL antigen
T3 construct: Commercial protein; construct not described; also called hNPR2 antigen
T3 sequence (looked up): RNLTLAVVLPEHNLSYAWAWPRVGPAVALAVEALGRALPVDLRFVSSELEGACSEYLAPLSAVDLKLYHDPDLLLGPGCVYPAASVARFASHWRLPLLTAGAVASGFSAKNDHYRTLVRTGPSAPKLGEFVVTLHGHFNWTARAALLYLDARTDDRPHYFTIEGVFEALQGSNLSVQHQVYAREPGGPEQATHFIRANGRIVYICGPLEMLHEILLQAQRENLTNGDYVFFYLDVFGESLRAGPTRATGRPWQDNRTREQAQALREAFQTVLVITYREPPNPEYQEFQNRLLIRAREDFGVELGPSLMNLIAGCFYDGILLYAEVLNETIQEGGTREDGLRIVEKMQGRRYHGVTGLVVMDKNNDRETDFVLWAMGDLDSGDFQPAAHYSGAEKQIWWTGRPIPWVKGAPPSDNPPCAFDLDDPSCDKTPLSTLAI

[3] = molecular target: T1, human NPR1 full-length protein …; assay: cell-based or functional assay; remark: listed apart in the source
[4] = molecular target: T1, human NPR1 full-length protein …; assay: flow cytometry on hNPR1-expressing CHO-K1 cells, without ANP
[5] = molecular target: T4, cynomolgus monkey NPR1 full-length protein overexpressed on CHO-K1 cells (cynomolgus monkey); assay: flow cytometry on cNPR1-expressing CHO-K1 cells, without ANP
T4 construct: whole, on cells; also called cNPR1-CHOK1; cNPR1 CHO-K1

[6] = molecular target: T1, human NPR1 full-length protein …; assay: flow cytometry on hNPR1-expressing CHO-K1 cells, antibody pre-mixed with 10 nM ANP
[7] = molecular target: T4, cynomolgus monkey NPR1 full-length …; assay: flow cytometry on cNPR1-expressing CHO-K1 cells, antibody pre-mixed with 10 nM ANP
[8] = molecular target: T1, human NPR1 full-length protein …; assay: cell-based or functional assay; remark: listed apart in the source
[9] = molecular target: T1, human NPR1 full-length protein …; assay: cell-based or functional assay; remark: listed apart in the source
[10] = molecular target: T1, human NPR1 full-length protein …; assay: cell-based or functional assay; remark: listed apart in the source
[11] = molecular target: T1, human NPR1 full-length protein …; assay: cell-based or functional assay; remark: listed apart in the source

T2 sequence (chain, as listed by the source limits assumed): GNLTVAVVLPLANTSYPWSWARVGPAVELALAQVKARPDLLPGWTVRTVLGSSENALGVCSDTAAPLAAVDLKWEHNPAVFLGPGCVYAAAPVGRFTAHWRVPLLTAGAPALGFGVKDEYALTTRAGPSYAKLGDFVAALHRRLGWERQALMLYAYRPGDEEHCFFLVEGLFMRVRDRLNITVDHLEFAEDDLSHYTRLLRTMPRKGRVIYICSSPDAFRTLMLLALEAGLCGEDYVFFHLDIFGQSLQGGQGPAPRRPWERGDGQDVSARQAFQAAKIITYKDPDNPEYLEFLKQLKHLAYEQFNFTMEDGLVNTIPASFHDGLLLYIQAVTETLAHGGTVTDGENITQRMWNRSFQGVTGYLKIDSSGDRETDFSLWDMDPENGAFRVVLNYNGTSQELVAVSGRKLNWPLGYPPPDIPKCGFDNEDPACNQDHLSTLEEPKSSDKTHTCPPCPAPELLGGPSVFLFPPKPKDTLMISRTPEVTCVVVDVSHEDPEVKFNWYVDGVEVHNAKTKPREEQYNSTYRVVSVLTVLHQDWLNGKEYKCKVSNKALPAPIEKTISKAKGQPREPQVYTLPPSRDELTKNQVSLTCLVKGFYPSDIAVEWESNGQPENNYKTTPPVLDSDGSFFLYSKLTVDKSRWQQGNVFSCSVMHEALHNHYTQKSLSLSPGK

B1: Hu135H3L1 (antibody, human IgG1, kappa, L234A L235A, V domains shown)
VH: DVKLVESGEGLVKPGGSLRLSCAASGFSISTYGMSWVRQAPGKRLEWVAYINSGGNYIYYADSVKGRFTISRDNAKNSLYLQMNSLRAEDTAVYYCTRDRTTIVVHWYFDVWGQGTTVTVSS
VL: DIQLTQSPSSLSASVGDRVTITCSASSSLNFMHWYQQKPGKSPKRWIYDTSKLASGVPSRFSGSGSGTDYTLTISSLQPEDFATYYCHQRSSTFGGGTKVEIKR
notes: Humanized, human IgG1 LALA/kappa; also called Hul35H3L1
cGMP production: EC50 [1]: 171 nM | cGMP production: Emax [1]: 0.43 | cGMP production: Emin [1]: 0.179 | EC50 [2]: 0.02 nM | binding result (hNPR2): no binding (tested: 20 µg/mL (highest concentration)) | Ratio (without ANP) of NPR1 antigens remaining on the cell surface after endocytosis to the initial number, 10 min, 20 µg/mL [3]: 0.85 ratio | Ratio (without ANP) of NPR1 antigens remaining on the cell surface after endocytosis to the initial number, 1 h, 20 µg/mL [3]: 0.67 ratio | Ratio (without ANP) of NPR1 antigens remaining on the cell surface after endocytosis to the initial number, 7 hrs, 20 µg/mL [3]: 0.63 ratio | Ratio (without ANP) of NPR1 antigens remaining on the cell surface after endocytosis to the initial number, 24 hrs, 20 µg/mL [3]: 0.76 ratio

B2: CHI-135 (antibody, human IgG1, kappa, V domains shown)
VH: DVKLVESGEGLVKPGGSLKLSCVASGFSISTYGMSWVRQTPEKRLEWVAYINSGGNYIYYADTVKGRFTISRDNARNTLYLQMSSLKSEDTAMYYCTRDRTTIVVHWYFDVWGTGTTVTVSS
VL: QIVLTQSPAIMSASPGEKVTMTCSASSSLNFMHWYQQKPGTSPKRWIYDTSKLASGVPARFSGSGSGTSYSLTISSMEAEDAATYYCHQRSSTFGGGTKLELKR
notes: Chimeric human IgG1/kappa; also called NPR1-CHAb-SFM-135; chimeric antibody of murine antibody 135
EC50 [4]: 4.39 nM | EC50 [5]: 3.59 nM | EC50 [6]: 2.49 nM | EC50 [7]: 1.63 nM

B3: Hu128H3L1-6 (antibody, human IgG1, kappa, L234A L235A, V domains shown)
VH: EVQLVQSGAEVKKPGASVKVSCKASGYTFTSYWMHWVRQAPGQGLEWMGRIDPNSGVTKYNEKFKSRVTLTVDKPSSPAYMELSSLRSEDTAVYYCARSSYLGRYFDVWGQGTTVTVSS
VL: EIVLTQSPATLSLSPGERATLKCSATSSVSYMYWYQQKPGQAPRLLIYDTYNLGSRIPARFSGSGSGTDYTLTISRLEPEDFAVYYCQQWSSYPPTFGQGTKLEIKR
notes: Humanized, human IgG1 LALA/kappa
EC50 [2]: 1.84 nM | binding result (hNPR2): no binding (tested: 20 µg/mL (highest concentration)) | Ratio (without ANP) of NPR1 antigens remaining on the cell surface after endocytosis to the initial number, 10 min, 20 µg/mL [3]: 1.3 ratio | Ratio (without ANP) of NPR1 antigens remaining on the cell surface after endocytosis to the initial number, 1 h, 20 µg/mL [3]: 0.91 ratio | Ratio (without ANP) of NPR1 antigens remaining on the cell surface after endocytosis to the initial number, 7 hrs, 20 µg/mL [3]: 0.96 ratio | Ratio (without ANP) of NPR1 antigens remaining on the cell surface after endocytosis to the initial number, 24 hrs, 20 µg/mL [3]: 0.82 ratio | cGMP production: EC50 [8]: 7.9 nM

B4: Hu128H3L2 (antibody, human IgG1, kappa, L234A L235A, V domains shown)
VH: B3 VH
VL: B3 VL with K22S, Q41S, A42S, G54A
cGMP production: EC50 [9]: 4.6 nM

B5: Hu140H5L5-11 (antibody, human IgG1, kappa, L234A L235A, V domains shown)
VH: B3 VH with E1Q, S100G, Y101G, G103R
VL: B3 VL with T20Q, K22S, T26S, G54A, R56G, I57V, A59D, D69S, Q99A
notes: as for B3
cGMP production: EC50 [10]: 36 nM | EC50 [2]: 8.65 nM | binding result (hNPR2): no binding (tested: 20 µg/mL (highest concentration)) | Ratio (without ANP) of NPR1 antigens remaining on the cell surface after endocytosis to the initial number, 10 min, 20 µg/mL [3]: 1.31 ratio | Ratio (without ANP) of NPR1 antigens remaining on the cell surface after endocytosis to the initial number, 1 h, 20 µg/mL [3]: 0.86 ratio | Ratio (without ANP) of NPR1 antigens remaining on the cell surface after endocytosis to the initial number, 7 hrs, 20 µg/mL [3]: 1.11 ratio | Ratio (without ANP) of NPR1 antigens remaining on the cell surface after endocytosis to the initial number, 24 hrs, 20 µg/mL [3]: 1.02 ratio

B6: Hu140H5L5 (antibody, human IgG1, kappa, L234A L235A, V domains shown)
VH: B3 VH with E1Q, S100G, Y101G, G103R
VL: B3 VL with K22S, T26S, G54A, R56G, I57V, D69S, Q99A
cGMP production: EC50 [10]: 40.9 nM

B7: Hu128H3L1 (antibody, human IgG1, kappa, L234A L235A, V domains shown)
VH: B3 VH
VL: B3 VL with K22S, G54A
cGMP production: EC50 [9]: 5.8 nM

B8: CHI-127 (antibody, human IgG1, kappa, V domains shown)
VH: QAYLQQSGPELVKPGASVKISCKASGYSFTGYFMNWVMQSHGKSLEWIGRINPYNGDTFYNQKFKGKATLTVDKSSSTVHMELRSLASEDSAVYYCARRGYGNRGYWYFDVWGAGTTVTVSS
VL: NIVLTQSPASLAVSLGQRATISCRASESVDSYGNSFMHWYQQKPGQPPKVLIYLASTLESGVPARFSGSGSRTDFTLTIDPVEADDAATYYCQQNNEDPLTFGAGTKLELKR
notes: Chimeric human IgG1/kappa; also called NPR1-CHAb-SFM-127-1; chimeric antibody of murine antibody 127
EC50 [4]: 1.73 nM | EC50 [5]: 1.19 nM | EC50 [6]: 1.74 nM | EC50 [7]: 1.28 nM | cGMP production: EC50 [11]: 42.7 nM | cGMP production: Emax [11]: 0.43 | cGMP production: Emin [11]: 0.077
